Experimental data reported in article PMC11324738.

B1: GPR50-FLAG WT, Q13585 Y305A; W306A; T307A; I308A (protein)
chain: MGPTLAVPTPYGCIGCKLPQPEYPPALIIFMFCAMVITIVVDLIGNSMVILAVTKNKKLRNSGNIFVVSLSVADMLVAIYPYPLMLHAMSIGGWDLSQLQCQMVGFITGLSVVGSIFNIVAIAINRYCYICHSLQYERIFSVRNTCIYLVITWIMTVLAVLPNMYIGTIEYDPRTYTCIFNYLNNPVFTVTIVCIHFVLPLLIVGFCYVRIWTKVLAARDPAGQNPDNQLAEVRNFLTMFVIFLLFAVCWCPINVLTVLVAVSPKEMAGKIPNWLYLAAYFIAYFNSCLNAVIYGLLNENFRREAAAAFHAMRHPIIFFSGLISDIREMQEARTLARARAHARDQAREQDRAHACPAVEETPMNVRNVPLPGDAAAGHPDRASGHPKPHSRSSSAYRKSASTHHKSVFSHSKAASGHLKPVSGHSKPASGHPKSATVYPKPASVHFKADSVHFKGDSVHFKPDSVHFKPASSNPKPITGHHVSAGSHSKSAFSAATSHPKPTTGHIKPATSHAEPTTADYPKPATTSHPKPTAADNPELSASHCPEIPAIAHPVSDDSDLPESASSPAAGPTKPAASQLESDTIADLPDPTVVTTSTNDYHDVVVIDVEDDPDEMAV

How the values were obtained:
[1] = biological target: recombinant LC3 protein, Q9GZQ8; experiment: ELISA; settings: chain shown with the change, recombinant LC3 coated on the plate, biotin-labeled synthetic peptide, read off a plot
GFP-LC3, Q9GZQ8 = experiment: Co-immunoprecipitation; settings: chain shown with the change; HEK293T cells co-transfected with GFP-LC3 and GPR50-FLAG constructs; IP anti-FLAG; n = 4 independent experiments; parent: est. 1.0; read off a plot
[2] = biological target: endogenous LC3 (human cells), Q9GZQ8; experiment: Proximity Ligation Assay; settings: chain shown with the change; HeLa cells transfected with GPR50-FLAG constructs; antibodies against LC3 and FLAG; n = 178–208 cells per group from 3 independent experiments; parent: est. 25; read off a plot

Row | Binder | response ([1]; peptide 1 µM, parent: est. 0.47) | response ([1]; peptide 2.5 µM, parent: est. 1.2) | response ([1]; peptide 5 µM, parent: est. 3.2) | response ([1]; peptide 10 µM, parent: est. 3.7) | response ([1]; peptide 20 µM, parent: est. 3.7) | response ([1]; peptide 40 µM, parent: est. 3.7) | ratio to parent (GFP-LC3, Q9GZQ8) | response (DUO (+) spots/cell) [2]
1 | NAVIYGLLNENFRREAAAAFHAM [biotin-labeled synthetic GPR50 LIR peptide, a.a. 290-312 (WT), Q13585 Y305A; W306A; T307A; I308A] | 0.38 OD (562 nm) | 0.35 OD (562 nm) | 0.38 OD (562 nm) | 0.4 OD (562 nm) | 0.4 OD (562 nm) | 0.5 OD (562 nm) |  | 
2 | B1 |  |  |  |  |  |  | 0.65 | 5.5
